Assay results reported in publication PMC7152798.

What was measured:
[1] = biological target: GST-FMRP C-terminus deleted from the last 89 amino acids which includes the RGG motif (mouse); assay: pull-down; GST-fusion proteins made in yeast, immobilised on glutathione sepharose 4B beads and incubated at 4 °C with lysate of tsA-201 cells transfected with CaV2.2/α2δ-1/β1b; washed four times with ice-cold 1% Triton-PBS; blots with CaV2.2 II-III loop Ab and GST Ab; bands quantified as a percentage of CT
[2] = biological target: GST-FMRP C-terminus deleted from the last 63 amino acids (mouse); assay: as above

Sequence of calcium channel CaV2.2 (Q05152 whole entry): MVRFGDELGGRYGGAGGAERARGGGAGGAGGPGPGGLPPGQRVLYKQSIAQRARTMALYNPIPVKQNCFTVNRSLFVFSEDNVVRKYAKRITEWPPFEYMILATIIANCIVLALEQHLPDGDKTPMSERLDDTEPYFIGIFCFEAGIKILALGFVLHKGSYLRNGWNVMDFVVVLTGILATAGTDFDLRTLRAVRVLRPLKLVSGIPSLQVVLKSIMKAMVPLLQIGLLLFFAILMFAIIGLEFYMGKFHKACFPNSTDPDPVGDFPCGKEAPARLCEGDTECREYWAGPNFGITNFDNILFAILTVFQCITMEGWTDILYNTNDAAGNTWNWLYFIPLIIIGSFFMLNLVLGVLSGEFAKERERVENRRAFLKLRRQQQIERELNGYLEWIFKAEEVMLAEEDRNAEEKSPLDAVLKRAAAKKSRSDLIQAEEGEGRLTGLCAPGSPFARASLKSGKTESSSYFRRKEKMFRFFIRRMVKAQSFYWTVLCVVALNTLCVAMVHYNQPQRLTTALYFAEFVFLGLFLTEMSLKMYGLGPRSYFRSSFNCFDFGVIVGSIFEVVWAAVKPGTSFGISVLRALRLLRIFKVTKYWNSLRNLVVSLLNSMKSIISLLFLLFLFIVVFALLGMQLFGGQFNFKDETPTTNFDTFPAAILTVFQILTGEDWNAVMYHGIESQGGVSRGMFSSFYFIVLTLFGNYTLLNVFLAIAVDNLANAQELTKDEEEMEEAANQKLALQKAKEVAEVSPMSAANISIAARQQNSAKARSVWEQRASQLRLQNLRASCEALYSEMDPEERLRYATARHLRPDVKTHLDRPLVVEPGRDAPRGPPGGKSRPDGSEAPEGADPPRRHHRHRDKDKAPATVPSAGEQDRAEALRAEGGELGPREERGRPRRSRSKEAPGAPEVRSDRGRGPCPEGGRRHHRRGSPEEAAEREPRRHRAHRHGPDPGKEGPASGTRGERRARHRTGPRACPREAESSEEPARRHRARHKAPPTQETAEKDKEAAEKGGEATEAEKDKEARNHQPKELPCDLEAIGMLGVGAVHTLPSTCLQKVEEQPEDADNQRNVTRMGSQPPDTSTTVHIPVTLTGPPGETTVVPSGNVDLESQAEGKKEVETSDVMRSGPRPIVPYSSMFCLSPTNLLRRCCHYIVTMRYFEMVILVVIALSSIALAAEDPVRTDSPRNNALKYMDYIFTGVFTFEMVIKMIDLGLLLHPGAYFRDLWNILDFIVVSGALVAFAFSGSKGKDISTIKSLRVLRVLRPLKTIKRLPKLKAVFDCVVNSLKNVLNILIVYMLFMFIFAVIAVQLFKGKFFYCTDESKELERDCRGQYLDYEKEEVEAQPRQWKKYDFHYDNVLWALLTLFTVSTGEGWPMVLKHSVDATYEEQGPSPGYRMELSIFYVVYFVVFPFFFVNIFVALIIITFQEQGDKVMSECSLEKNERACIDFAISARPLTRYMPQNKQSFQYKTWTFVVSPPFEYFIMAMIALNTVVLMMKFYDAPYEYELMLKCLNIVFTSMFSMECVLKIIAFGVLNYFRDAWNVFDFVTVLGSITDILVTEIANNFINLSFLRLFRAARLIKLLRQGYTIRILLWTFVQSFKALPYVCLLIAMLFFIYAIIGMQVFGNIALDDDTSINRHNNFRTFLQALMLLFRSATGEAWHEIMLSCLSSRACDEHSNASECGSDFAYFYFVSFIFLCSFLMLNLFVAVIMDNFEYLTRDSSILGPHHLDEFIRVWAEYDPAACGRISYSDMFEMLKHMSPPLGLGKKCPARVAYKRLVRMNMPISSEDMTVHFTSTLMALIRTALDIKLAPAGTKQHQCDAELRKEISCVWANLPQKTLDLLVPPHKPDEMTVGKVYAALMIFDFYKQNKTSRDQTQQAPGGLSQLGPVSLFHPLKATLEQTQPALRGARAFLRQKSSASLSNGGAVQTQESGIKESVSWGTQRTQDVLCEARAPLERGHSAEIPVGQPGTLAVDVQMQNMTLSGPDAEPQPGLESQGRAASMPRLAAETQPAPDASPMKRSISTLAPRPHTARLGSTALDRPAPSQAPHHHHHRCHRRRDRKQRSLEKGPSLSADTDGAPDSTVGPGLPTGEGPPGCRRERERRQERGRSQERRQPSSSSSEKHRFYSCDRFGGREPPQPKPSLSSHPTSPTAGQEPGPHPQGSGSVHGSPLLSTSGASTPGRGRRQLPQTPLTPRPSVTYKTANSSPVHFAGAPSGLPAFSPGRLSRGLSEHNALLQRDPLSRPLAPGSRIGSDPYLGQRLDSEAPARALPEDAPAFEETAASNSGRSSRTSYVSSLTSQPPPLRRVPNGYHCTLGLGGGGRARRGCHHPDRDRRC

reduction of the binding relative to CT [1]: 79.5% | reduction of the binding relative to CT [2]: 61.7%
Substance: calcium channel CaV2.2 (from UniProt Q05152 1-2339) (natural protein)
